This note sets out measurements from the NTF2 design screens of Basanta et al. (2020).

The nature of this data set: protease stability score; higher = more stable; yeast display proteolysis, trypsin and chymotrypsin.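 Also: relative to predicted unfolded state with 0 unfolded-like and 1 meaning tenfold more protease.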
The sequence “SEDEHYVRHAIKLWMDSHLTGDEHTLTQLLDPNVRTDFNGREFHGREEASKWTKHLLERMGIKVSDVHLRRLDVQGDKAISHTELIIHFNGVDLSKEVHIDIMKVDGQWMIRDLTII” displayed a protease stability score of 0.613. The sequence “SEDEIARHILHKMMTGDEDSFEELLDPNARLIVGNKHSHGRERVIEDWKRDLELAGFKHSEVKRIHFQGEKSHVHGHINVNGKEYRVLFILVIVNGRLKEVELHVTDEREEKYLHRTWE” displayed a protease stability score of 0.007. For “SEDEIAVKKFMQRWIEAVHTGNEDVLTELADPNYRIIFEGRNLHGMDQILHDVRRVDVLEERMHVTSVDSQGDKIHIHGTLQVHFHVGDKQIDIHTQVTWHMLKIDGVWILKKVEIH”, the protease stability score turned out to be 1.39. The sequence “SEDEKASKEAFELWRRVDETGDEHSLLRLLDPHVRLHIGDKHLHGREEVKRLLEELGVSRVHFDLRTIRVINGKVFVHGDFEVGDKRTHSEIVALKVDGRWINESIHIR” had a protease stability score of 0.806.

As for “SEDEKAVEDLFKLWVRDLVTGDEDSINKLLDPNARVEIGDKEFHGMEDVVRFLLHIRFKHVEMHDMRVQGNKATLHVDIRGVVDGRDRELDTILIIEKVNGKWYLHHQKIN”, the protease stability score was 1.48.

Sequence “SEDEKDAEKMSERFLHMFITGNEELFRDLADPHTRLKVNGVHNHGREHVEILNKEFLTRLGVNYYEEHDVRYRVIDGVVFIDIVGHMNIDGQETEVTLHWRVLKVNGRWRITEVDIRRH” registered a protease stability score of 1.64. For the sequence “SEDEKDAHEAVKRMVHFSETGDWREIEELADPHYRIDWNGRTHIGREEFTEITKRLGINVIRHRHITIINGRIHVHGEVHFNGQSTEVEFIITKINGKWRLHEMIIR”, the protease stability score came to 0.747. “SEDEKDARIAVKLLWEIFQTGDEDLFTKFIDPNTRSEINGREIHGREDVYRLMEELGIKVIRVHDVKTQGDKVHLTMEVTVNGRRHRVHFIFEKIDGRWIARHEKVE” showed a protease stability score of 1.45. With “SEDEKDVKDAFDIWYESHITGNEEYARKMADPDTLSIVNGVRIHGMETWMHFLLKHQKELGIDVYTTDIHHVEVFDGRVKVDLRMREIFNGRHLEFETEVISEKIDGRWHVRSIRIT”, the protease stability score came out at 1.36. Consider “SEDEKEAKETQSIYSHAVQTGDEHHLKELADPNVRIEINGVEYVGWEQLKDMLERFKNVRIKVSVRRVHQIGDKIHLNTELEEDVDGVRRVIDVRVIIWKINGRWRFKTFESQ”, for which the protease stability score came to 1.41.

For “SEDEKEDHELSRHVIETLKTGDWELLSELADPHVRLKVNGKTYIGRELFTETVRRLLDRFKNMTLKIEDIKTVDGRLEIHIFLIVGDKFFELIIIATKVDGRWFEEEMHVHHS”, the protease stability score was 0.915. The sequence “SEDEKEMKQALEHWLELLTTGNEEENEKLADPDVRLNFNGKEFHGWKLYREFLSRIKNATIRIREVRVVNGKVTVISELRIGDKVFEVQIHLKKVNGKWYVEEEHIH” yielded a protease stability score of 1.61. In turn, “SEDEKENREWKRLLIEAHMTGDEHFLSRQLDPNVLVIVNGQEKVGREEAERELKEWLDKVKGLRIRRFDTESEEFVDGRLHSNLKLDGIINGRRTELDIHVISVKIDGQWQIRQIFFV” came in with a protease stability score of 1.44. As for “SEDEKERDMIAELFVRSLVTGDEELIKDLIDPNVKLDIGDKSRHGRENFTRQILHFGVDHVDVTEMHVQGEKVNLRGNWNINGVDLDVINYVTKVNGKWLLTRVEIK”, the protease stability score was 1.14. Consider “SEDEKFARHVVKLWEDNYKTGNFEELLHMMDPHVKIKVNGRELHGWEELEKILTEFHERFRNQKLDIKLRDLKIQGNYVHADMELTIHYNGQEHREQVHLVVRKVNGRWEIEKITFD”, for which the protease stability score was 0.813. In turn, “SEDEKFLQIALHLMMHWINTGDEDFLREMADPHVRLHDGDKEHHGWKVIEHLFHYYGVDHITVKRYTIIGDKVKTDGELRVGDKRFRILYETVKIDGRWHVHKIEIR” returned a protease stability score of 1.43. The sequence “SEDEKFWEDISKIVLDLLRTGDWELSERYADPNVKVHLVIDGQELDLHGREHVVNLVRKLGADHVETEDHKFHYQGNKIRINIHGHLNINGKVQHVEFTEIWVKVDGRWYSQHHEIVFR” returned a protease stability score of 1.55. Turning to “SEDEKHAHEFLEQFIRDWVTGNEESFELMLDPDMRLNINGRDFHGREEAVRHFSHRFKQLGVKHIELKEVDIDVFDGKVHSTYDGVERFNGQELRVRIEVEVLKINGQWYLHRVVVKIE”, the protease stability score was 2.27.

Regarding “SEDEKHFREALEELHRALETGDWKRLDELLDPNTRLHINGVDLIGREMVSRFYRELVEHLGINHIELRVHHIRIIGDKVEMDSELIIDVGDKHIRIDQKLDAKKVDGRWISHVESHR”, the protease stability score worked out at 2.05. Take “SEDEKHSEHAIHLIEHSMHTGDEKTLRDNIDPHVRVHINGRDVIGRELWMEILRRDLEELGVERVDFKTHHVEVFNGRMNIDGILTQGDKRVKVQIHYTKINGRWILEELIIR”: the protease stability score was 0.841. In turn, “SEDEKIAEHLMHEISRSTQTGDEEMSRRLMDPNVRIDINGKQIHGWETWQKEVERVDHSHSRFQLRDVRSQGNYLDARGEFHLDLHINGRTVHIVYDVTFIILKIDGRWFLHSIKVR” yielded a protease stability score of 0.519. As for “SEDEKIAHKVHRLMFESLRTGDEEFLRRMLDPNARFVVNGQDLVGMEFLDHTLREMRVREIRWRSSDVEIQGDKIINHSKVHSRFDQGEKETHVEVHIIIIYTKIDGQWHVKSVIIEYK”, the protease stability score was 1.12. “SEDEKIAQRLLDLLLESFITGDEQMDRELLDPNVKMEVGDKELHGREEALEWFTRVAKRVDHMRFTLTHMDIIDGRIIIQGRVEQFFNGRKVTTRYNLLVLKIDGRWRIEEIRYH” returned a protease stability score of 1.42. Consider “SEDEKIARDVIKLVLHAMRTGDEELFLKLADPNVRILFDGKELHGREEVIRFRERIDHFDIKRFDLRDMKIINGVMHVDVEIDGVLEVDGVRERRIEKVRWVVLKVDGRWRTHSIEIV”, for which the protease stability score was found to be 2.69. In the case of “SEDEKIASEIAEYVERAFRTGNEEEWERYADPHVRTDVNGQDLIGRRTLEEMFHRIDHLHDSRMEIHDVKLVNGRIISDVRLHLDSHYNGVRFEWEHEVRIQVDKINGRWRVKFIEIR”, the protease stability score stood at 0.428. Consider “SEDEKIHREMSKIMLEDLFTGDWKSLRDLVDPNVRIIVDGREFHGREYYSRELIEELLKFKNARFDIEHVELRIYDGRLRTLIHMRVNIDGVEHWVIVEVDFTKIDGRWYVEEIRVEVR”, for which the protease stability score came out at 1.33. On to “SEDEKIMEEASRLFMHLFLTGDEETLMRLADPNTRIVFNGQDHHGREEWTKVLRDLGIKHSHIEHVNLRTQGDKVDLNVHVNVHIDGRTRRYLIIVHATKINGRWEIKEIQVHEH”, for which the protease stability score is 0.989.

As to “SEDEKISEEALRRWVHHNRTGNEQDYVRMADPDTKIEIGDKEFHGREEFVKLARDYGFKHYHLKDNDVIGDKIRIDGIVEFNGQRWEMILYFVKYDGRWSIKSIHIK”, the protease stability score was determined as 1.45. The sequence “SEDEKITKEATRIFLENLHTGDERTMDDNLDPNVLLIINGVELVGREFIVTWLKELRLKRQDIKSIDMRLINGVAHVFMDIHVEGNYNGRDRRSDEELRYIIRKIDGRWSIESVEIHIR” had a protease stability score of 1.22. “SEDEKKRDESLELILRAILTGDEDLLKTLADPHVMFDWNGKELHGMNVFIHWVRHMGVDHRNIESKDKRIQGDKVRLDMTSNEHAENHEHRYRVELIIKKIDGRWIIKEFIIR” showed a protease stability score of 1.36.

In the case of “SEDEKLAEDFFELLRHLIHTGDENTLREFADPRTRVQINGREIHGWDESARHIMHETLRFKNMRINLHLKDRRVIGEKMELDVKVQLHFNGQTEEFDFILYVEKVNGKWVIKSIHVH”, the protease stability score turned out to be 1.26.

“SEDEKLAHLVTELMTHSDRTGDERILEHLLDPNTRVIINGVSYHGMEAYRHMVRHIRFHNWEIHDVDSVNGQVHVDSRAEGNIDGVRDILNTWIISDKYDGRWIISEIEII” registered a protease stability score of 0.53. As to “SEDEKLDRDLHDLFRKLWETGDFDSLLKLADPTARFIYDFENHSEEEHGMHVYLKRLTERLRFFKGLQIEVDVIHVVNGVSHFELTMHIDGVRIKVEIEVITIDGRVREMRVRDN”, the protease stability score came to 0.738. “SEDEKLFRLSIEIYLRVSRTGDEHMAHEYADPHVRLRIGDKEFHGREEFIKWVNELRVEELRLKEVRVIGDKAHLRTEVHTYIGDKEINYEMEIHQTKIDGKWFLREMKLK”: the protease stability score is 0.486.

For “SEDEKLMEHAFRQLLRDLETGDWHSFHHLADPTVKLDIDGREIHGRESATRVLEELWRKFGVTRVESELHSMHSQGDKLRVESKMNFNGVEYSVIIIMIKIDGRWLLHSENHK”, the protease stability score amounted to 1.56. On to “SEDEKLVHHAANLILEALWTGDEDTLREMVDPNVRTHINGREFHGWEESIRIILHHLNRFKNVRWHLHDQRVYGEKSHNDVRTNVDGVTLEVILILIVVDGRIRSISIEIR”, for which the protease stability score was found to be 2.68. “SEDEKMAERVLRLLYEDILTGDEHALKRLLDPDARLSQGDKQHHGREVLLEWMRTVWERVDHMEFELKDFRFYGNYIIIHGTLTERINGRKLEFEVILYVYKINGKWFLHSIEIR” came in with a protease stability score of 1.85. For the sequence “SEDEKMANEMLEIMMRNLITGNWEELSRLADPHVRIVINGVELHGRETINNYLHHLRIKRVHLNVTHIESIDGKVKSIGLLREHGEFNGKETETHTKVILIIQKVNGVWIVKEIRDE”, the protease stability score was found to be 1.4. In the case of “SEDEKMFKEMKDLLLEILRTGDEDSWSHLADPDYRMDINGRIDHGMEEASRSLTEFLRKLGIDHLDIKDSKVTLVNGRAIIILHEETKVNGRKFNLRIINIVSKVNGKWSIESFSMSIE” it was 1.29; in that of “SEDEKMIEDASELHIDYFLTGDEESMEKLADPSVKLEQGDKDQHGREQHSKWYKELREELGIKHMRVDDVKFRLINGRLTLLIRGTLHVGDKSWDVHFILISEKIDGKWVIRNMIISYS”, 1.32. On to “SEDEKMTEMALRLFMHTWRTGDEQVFRHLADPDYRLEVNGVEFIGWEQVTELFSRIVKRFDHMHIHLREFDDINGQADVRGTLILIQGDKEIRMETHIISKKFNGRWTHRRVHFH”, for which the protease stability score was found to be 0.428. Sequence “SEDEKNHKIAMRILRRVIETGDERELEELADPDVRIVIGDKFHVGRDVWHEWAHRFDHTHHIEVKDHRHFDGRITLDTEVDVHIDGRRSRMRVIIIARKVDGVWFLHELRIH” displayed a protease stability score of 1.31. “SEDEKNSRKFLEDWIRALETGDEHRLEELLDPHVLVIVDGVHYWGMEIFLKERRRHGFKLKDVRLEHMTIQGDKVILHVQIEVHINGRDHHLESYIIIEKVNGRWHVSKLELR” came in with a protease stability score of 2.71. Sequence “SEDEKNVDEFMERMTRLTETGDEDNLRHLMDPNVYLHQGDKVHHGREDVVKAIREIIDNLGVTQVKAEVHSFEVIGDKMDLRGTLEFNGVRWRRHIDIHKVDGRWHLQFVHIE” registered a protease stability score of 0.251. As for “SEDEKNVEEMSRRLSHVLKTGDEESFSRLADPNARHIYNGRILHGWENFVRFLRHLWEHARIHELHVHDFEYQGDFMHVDSRLNGDINGQQMIFTTHLYNIKINGRWFLTEVKIV”, the protease stability score came out at 0.429. “SEDEKQFNEFLKLFNHSLQTGDEDTLTDLMDPTVRSDINGREFHGREEMSRALNILIKLAGVDHTSIDLKRLEVVGDKAHSDVSLLLIQGDKIRTHEMKLDMYKIDGKWILTHLRFK” came in with a protease stability score of 1.66. “SEDEKQLEHAVKLFIESLRTGDEHSLENLVDPNVRMQINGVELHGRELFIHLFREWRFHSVHLRHLDLQGDKVHLDGKLDVRFDGRRYEVILRTHIEKIDGRWHLRYMYEE” came in with a protease stability score of 1.45.
